Measured values as given in IntAct's records for PubMed 31515488.

B1: U6 snRNA-associated Sm-like protein LSm7 (Homo sapiens), Q9UK45 (parent)
chain: MADKEKKKKESILDLSKYIDKTIRVKFQGGREASGILKGFDPLLNLVLDGTIEYMRDPDDQYKLTEDTRQLGLVVCRGTSVVLICPQDGMEAIPNPFIQQQDA
partner: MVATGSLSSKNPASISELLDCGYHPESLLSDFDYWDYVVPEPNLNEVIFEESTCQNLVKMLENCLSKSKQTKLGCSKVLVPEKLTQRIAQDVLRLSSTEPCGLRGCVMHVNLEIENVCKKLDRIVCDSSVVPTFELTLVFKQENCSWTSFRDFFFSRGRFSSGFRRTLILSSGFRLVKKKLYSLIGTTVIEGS
B2: Transcription factor 19 (Homo sapiens), Q9Y242 (parent)
chain: MLPCFQLLRIGGGRGGDLYTFHPPAGAGCTYRLGHRADLCDVALRPQQEPGLISGIHAELHAEPRGDDWRVSLEDHSSQGTLVNNVRLPRGHRLELSDGDLLTFGPEGPPGTSPSEFYFMFQQVRVKPQDFAAITIPRSRGEARVGAGFRPMLPSQGAPQRPLSTFSPAPKATLILNSIGSLSKLRPQPLTFSPSWGGPKSLPVPAPPGEMGTTPSAPPQRNRRKSVHRVLAELDDESEPPENPPPVLMEPRKKLRVDKAPLTPTGNRRGRPRKYPVSAPMAPPAVGGGEPCAAPCCCLPQEETVAWVQCDGCDVWFHVACVGCSIQAAREADFRCPGCRAGIQT
B3: Ropporin-1A (Homo sapiens), Q9HAT0 (parent)
chain: MAQTDKPTCIPPELPKMLKEFAKAAIRVQPQDLIQWAADYFEALSRGETPPVRERSERVALCNRAELTPELLKILHSQVAGRLIIRAEELAQMWKVVNLPTDLFNSVMNVGRFTEEIEWLKFLALACSALGVTITKTLKIVCEVLSCDHNGGSPRIPFSTFQFLYTYIAKVDGEISASHVSRMLNYMEQEVIGPDGIITVNDFTQNPRVQLE
partner: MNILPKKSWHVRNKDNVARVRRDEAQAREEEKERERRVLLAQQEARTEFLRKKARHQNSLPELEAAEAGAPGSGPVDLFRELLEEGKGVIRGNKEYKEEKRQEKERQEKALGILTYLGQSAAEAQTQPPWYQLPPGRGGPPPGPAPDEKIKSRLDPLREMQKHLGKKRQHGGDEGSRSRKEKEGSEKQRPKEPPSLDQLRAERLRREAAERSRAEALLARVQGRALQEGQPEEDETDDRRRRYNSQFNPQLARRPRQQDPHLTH
B4: Nebulette (Homo sapiens), O76041 (parent)
chain: MRVPVFEDIKDETEEEKIGEEENEEDQVFYKPVIEDLSMELARKCTELISDIRYKEEFKKSKDKCTFVTDSPMLNHVKNIGAFISEAKYKGTIKADLSNSLYKRMPATIDSVFAGEVTQLQSEVAYKQKHDAAKGFSDYAHMKEPPEVKHAMEVNKHQSNISYRKDVQDTHTYSAELDRPDIKMATQISKIISNAEYKKGQGIMNKEPAVIGRPDFEHAVEASKLSSQIKYKEKFDNEMKDKKHHYNPLESASFRQNQLAATLASNVKYKKDIQNMHDPVSDLPNLLFLDHVLKASKMLSGREYKKLFEENKGMYHFDADAVEHLHHKGNAVLQSQVKYKEEYEKNKGKPMLEFVETPSYQASKEAQKMQSEKVYKEDFEKEIKGRSSLDLDKTPEFLHVKYITNLLREKEYKKDLENEIKGKGMELNSEVLDIQRAKRASEMASEKEYKKDLESIIKGKGMQAGTDTLEMQHAKKAAEIASEKDYKRDLETEIKGKGMQVSTDTLDVQRAKKASEMASQKQYKKDLENEIKGKGMQVSMDIPDILRAKRTSEIYSQRKYKDEAEKMLSNYSTIADTPEIQRIKTTQQNISAVFYKKEVGAGTAVKDSPEIERVKKNQQNISSVKYKEEIKHATAISDPPELKRVKENQKNISNLQYKEQNYKATPVSMTPEIERVRRNQEQLSAVKYKGELQRGTAISDPPELKRAKENQKNISNVYYRGQLGRATTLSVTPEMERVKKNQENISSVKYTQDHKQMKGRPSLILDTPAMRHVKEAQNHISMVKYHEDFEKTKGRGFTPVVDDPVTERVRKNTQVVSDAAYKGVHPHIVEMDRRPGIIVDLKVWRTDPGSIFDLDPLEDNIQSRSLHMLSEKASHYRRHWSRSHSSSTFGTGLGDDRSEISEIYPSFSCCSEVTRPSDEGAPVLPGAYQQSHSQGYGYMHQTSVSSMRSMQHSPNLRTYRAMYDYSAQDEDEVSFRDGDYIVNVQPIDDGWMYGTVQRTGRTGMLPANYIEFVN
partner: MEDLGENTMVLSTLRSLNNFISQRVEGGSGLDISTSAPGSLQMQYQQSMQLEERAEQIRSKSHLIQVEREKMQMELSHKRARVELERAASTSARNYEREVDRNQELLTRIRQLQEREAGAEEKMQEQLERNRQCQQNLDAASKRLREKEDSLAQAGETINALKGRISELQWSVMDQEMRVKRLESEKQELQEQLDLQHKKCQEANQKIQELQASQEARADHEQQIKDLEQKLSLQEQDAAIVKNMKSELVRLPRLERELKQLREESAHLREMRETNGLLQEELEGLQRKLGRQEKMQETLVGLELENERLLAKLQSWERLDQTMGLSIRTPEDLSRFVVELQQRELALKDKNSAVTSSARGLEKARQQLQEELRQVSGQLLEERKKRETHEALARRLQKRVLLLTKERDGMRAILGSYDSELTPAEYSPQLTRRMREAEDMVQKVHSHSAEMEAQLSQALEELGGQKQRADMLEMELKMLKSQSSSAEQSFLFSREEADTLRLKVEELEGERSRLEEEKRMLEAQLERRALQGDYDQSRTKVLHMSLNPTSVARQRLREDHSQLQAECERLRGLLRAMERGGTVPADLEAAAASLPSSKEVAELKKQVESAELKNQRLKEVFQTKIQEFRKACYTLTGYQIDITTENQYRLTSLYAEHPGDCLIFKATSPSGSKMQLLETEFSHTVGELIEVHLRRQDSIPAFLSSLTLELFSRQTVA

Variants of: B1
Details: with ddt4l_human DDIT4L

Variant | effect of a mutation on the interaction
G78A | with no effect

Variants of: B2
Details: with dnja3_human DNAJA3, Q96EY1
Sequence of dnja3_human DNAJA3, Q96EY1 (Q96EY1 whole entry): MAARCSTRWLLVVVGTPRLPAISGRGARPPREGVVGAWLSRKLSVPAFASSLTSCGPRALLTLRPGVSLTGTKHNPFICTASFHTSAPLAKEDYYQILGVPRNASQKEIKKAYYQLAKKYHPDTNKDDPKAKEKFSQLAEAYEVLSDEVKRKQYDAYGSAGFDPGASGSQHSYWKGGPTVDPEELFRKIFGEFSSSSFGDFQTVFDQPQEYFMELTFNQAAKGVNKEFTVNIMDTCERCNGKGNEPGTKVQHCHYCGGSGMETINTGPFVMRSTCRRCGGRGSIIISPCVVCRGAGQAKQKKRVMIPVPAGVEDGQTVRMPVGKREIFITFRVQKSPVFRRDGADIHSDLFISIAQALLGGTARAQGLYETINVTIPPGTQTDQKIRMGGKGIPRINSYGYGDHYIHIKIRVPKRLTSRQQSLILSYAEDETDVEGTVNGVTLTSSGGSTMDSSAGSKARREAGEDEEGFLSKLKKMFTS

Variant | effect of a mutation on the interaction
A279V | with no effect

Variants of: B3
Details: with leng1_human LENG1, Q96BZ8

Variant | effect of a mutation on the interaction
C62W | with no effect

Variants of: B4
Details: with md1l1_human MAD1L1, Q9Y6D9

Variant | effect of a mutation on the interaction
R613Q | with no effect
M351V | with no effect
